According to patent US20130064835A1, “RAGE REGULATES ROCK ACTIVITY IN CARDIOVASCULAR DISEASE” (priority 2009, published 2013):

B1: S100B: RAGE ligand S100B (protein, UniProt P04271 2-92, looked up)
Protein S100-B: SELEKAMVALIDVFHQYSGREGDKHKLKKSELKELINNELSHFLEEIKEQEVVDKVMETLDNDGDGECDFQEFMAFVAMVTTACHEFFEHE
B2: Tgf-β2: Tgf-β2 (R&D Systems), used as SMC stimulant (protein)
chain: ALDAAYCFRNVQDNCCLRPLYIDFKRDLGWKWIHEPKGYNANFCAGACPYLWSSDTQHTKVLSLYNTINPEASASPCCVSQDLEPLTILYYIGNTPKIEQLSNMIVKSCKCS

Columns and labels:
[1] = test system: vascular smooth muscle cells; experiment: Smooth muscle cell proliferation assay (tritiated thymidine incorporation); format: cell-based, mice; details: for S100B-stimulated SMC proliferation in presence of inhibitor: preincubation with agent (Y27632 10 μM, fasudil 10 μM, anti-Tgf-β2 IgG 10 μg/ml vs IgG control), FIGS. 8C, 8E; for SMC proliferation on incubation with stimulant: FIG. 8A
Experimental: (§1) Wild-type and RAGE null mice vascular smooth muscle cells were isolated and cultured from the aorta and employed through passage 5 to 7. Migration assays were performed using the QCM Colorimetric Cell Migration Assay (Chemicon). Cells (3×10^5/well) were seeded into the upper chambers fitted with a lower 8 μm porous polycarbonate membrane, and the insert was placed in the lower chamber of a 24-well dish containing Dulbeccos' modified Eagle medium and no stimulant, S100B (10 μg/ml; generously provided by Dr. Guenter Fritz), Tgf-β2 (10 ng/ml; R&D Systems), or PDGF (10 ng/ml; R&D Systems) and incubated at 37° C. for 5 hrs and relative migration was measured according to the manufacturer's instructions. In experiments using anti-Tgf-β2 IgG and nonimmune IgG (10 μg/ml, both from Santa Cruz Biotechnology, Santa Cruz, Calif.), Y27632 (10 μM, Sigma Aldrich) and fasudil hydrochloride (10 μM, Tocris Bioscience, Ellisville Mo.) cells were preincubated with these agents or vehicle alone for 2 hrs in the case of antibodies and 30 mins in the case of Y27632 or fasudil at 37° C. prior to the addition to the chemotaxis chambers. Proliferation of cultured SMCs was quantified by measurement of incorporation of tritiated thymidine. SMCs were seeded at a density of 2×10^4 cells/wells in 24-well tissue culture-treated plates and incubated in serum-free DMEM for 16 hrs. Following a 2 hr preincubation with the indicated concentration of anti-Tgf-β2, nonimmune IgG, Y27632 or fasudil, cells were exposed to serum-free DMEM containing the indicated concentration of S100B or PDGF (10 ng/ml) along with 3H-thymidine (1 μCi/well). After the incubation period, cells were harvested 48 hrs later, and cellular proliferation was determined based on the incorporation of tritiated thymidine. Cell counting was performed and confirmed that increased trititated thymidine incorporation reflected an increase in cell number.

[2] = test system: vascular smooth muscle cells; experiment: Smooth muscle cell migration assay (QCM Colorimetric Cell Migration Assay); format: cell-based, mice; details: S100B 10 μg/ml; for S100B-stimulated SMC migration in presence of inhibitor: preincubation with agent (Y27632 10 μM, fasudil 10 μM, anti-Tgf-β2 IgG 10 μg/ml vs IgG control), FIGS. 8D, 8F; for SMC migration on incubation with stimulant: Tgf-β2 10 ng/ml, PDGF 10 ng/ml, FIG. 8B
Experimental: as §1

ROCK1 = ROCK1 activity assay (MYPT1 phosphorylation) on lysates of aorta or primary aortic SMCs; format: cell-based, murine; details: S100B 10 μg/ml, FIG. 5B
Experimental: Activation of ROCK1 was evaluated on lysates of aorta or primary murine aortic smooth muscle cells retrieved from wild-type or RAGE null mice. In the latter case, SMCs were stimulated with S100B (10 μg/ml for the indicated times and subjected to ROCK1 activity assays (7-8). Aortas or SMCs were lysed using a Triton X-100 lysis buffer containing 50 mM Tris (pH 7.5), 10 mM MgCl2, 0.5 M NaCl and 1% Triton X-100. The samples were incubated with Anti-ROCK1 antibody described above for 1 hr further with Protein G coated agarose beads for overnight at 4° C., and the beads were washed three times with lysis buffer. The amount of ROCK1 associated with the beads was incubated with 50 μl kinase buffer, 1 μl 10 mM ATP (Cell Signalling) and 0.5 μg […] myosin phosphatase-1 (MYPT1)/protein phosphatase-1 regulatory (inhibitor) subunit 12A (Ppplrl2a) substrate (Upstate Biotech) at […] for 30 min. Reaction was stopped by adding sample buffer, boiled for 5 min and the amount of phosphorylated MYPT1 was examined by immunoblotting using ThrB50-phosphorylation specific antibody 36-003 (Upstate Biotechnology). […] Equal quantities of ROCK1 were treated with equal quantities of MYPT1/Ppp1r12a. Relative absorbances were measured as described above, and these were used to determine the relative activation of ROCK1. […]

Molecule | S100B-stimulated SMC proliferation in presence of inhibitor ([1]; wild-type SMCs) | S100B-stimulated SMC migration in presence of inhibitor ([2]; wild-type SMCs) | SMC proliferation on incubation with stimulant ([1]; RAGE-deficient SMCs) | SMC proliferation on incubation with stimulant ([1]; wild-type SMCs) | SMC migration on incubation with stimulant ([2]; RAGE-deficient SMCs) | SMC migration on incubation with stimulant ([2]; wild-type SMCs) | ROCK1 activity upon incubation with RAGE ligand (ROCK1; SMCs from RAGE null mice) | ROCK1 activity upon incubation with RAGE ligand (ROCK1; primary aortic SMCs from wild-type mice)
C[C@@H](N)[C@H]1CC[C@H](C(=O)Nc2ccncc2)CC1 [Y27632, reference compound] | significantly reduced | significantly reduced |  |  |  |  |  | 
O=S(=O)(c1cccc2cnccc12)N1CCCNCC1 [fasudil, 5-(1,4-diazepane-1-sulfonyl)isoquinoline, reference compound] | significantly reduced | significantly reduced |  |  |  |  |  | 
PDGF [reference compound] |  |  | increased | increased | increased | increased |  | 
B1 |  |  | failed to stimulate | significantly increased | failed to stimulate | significantly increased | failed to increase ROCK1 activity | increased ROCK1 activity
B2 |  |  | increased | increased | increased | increased |  | 
